Results as given in patent US20020127221A1.
No end group written: not given here.

Legend:
CRF-R1 [1] = test: displacement of 125I-Sauvagine, membranes of CHO cells expressing CRFR1, filtration assay
CRF-R2β [2] = test: displacement of 125I-Sauvagine, membranes of CHO cells expressing CRFR2β, filtration assay
CRF-R1 [3] = test: cell-based or functional assay
CRF-R2β [4] = test: cell-based or functional assay
CRF-R2β [5] = test: radioreceptor competition vs 125I-[Tyr0,Glu1,Nle17]-sauvagine, CHO cell membranes
CRF-R1 [6] = test: radioreceptor competition vs labeled sauvagine, CHO cell membranes; reference urocortin
CRF-R1 [7] = test: assay not named in the summary; presumably 125I-sauvagine competition
CRF-R1 [8] = test: radioreceptor competition vs 125I-[Tyr0,Glu1,Nle17]-sauvagine, CHO cell membranes

CRF-R1, sequence (P34998 24-415): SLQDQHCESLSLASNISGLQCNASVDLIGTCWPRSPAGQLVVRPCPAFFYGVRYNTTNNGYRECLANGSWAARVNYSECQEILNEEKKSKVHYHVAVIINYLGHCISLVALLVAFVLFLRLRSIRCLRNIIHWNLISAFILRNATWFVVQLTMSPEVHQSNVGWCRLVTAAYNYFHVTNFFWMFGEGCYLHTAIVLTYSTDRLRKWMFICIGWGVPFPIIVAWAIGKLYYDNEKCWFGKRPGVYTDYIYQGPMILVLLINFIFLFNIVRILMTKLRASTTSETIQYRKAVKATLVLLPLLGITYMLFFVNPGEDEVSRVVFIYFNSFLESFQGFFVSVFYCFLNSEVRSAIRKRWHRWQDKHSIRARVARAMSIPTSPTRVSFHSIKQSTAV

Molecule	Ki (CRF-R1 [1])	Ki (CRF-R2β [2])	Avg. EC50 (nM) (cAMP) (CRF-R1 [3])	Avg. EC50 (nM) (cAMP) (CRF-R2β [4])	Ki (CRF-R2β [5])	fold less effective than urocortin at competing for binding of labeled sauvagine (CRF-R1 [6])	Ki (CRF-R1 [7])	Ki (CRF-R1 [8])
urocortin (Ucn), species not stated (from UniProt P55090 81-120) (peptide)	0.13 nM	0.15 nM						
VILSLDVPIGLLRILLEQARYKAARNQAATNAQILAHV-NH2 [Urocortin II (mouse)]			> 100 nM	0.14 nM	0.66 nM	> 1000 fold		
IVLSLDVPIGLLQILLEQARARAAREQATTNARILARVGHC-NH2 [human urocortin-related peptide]	78 nM	0.23 nM	> 100 nM	0.42 nM	0.5 nM		70 nM	
QGPPISIDLSLELLRKMIEIEKQEKEKQQAANNRLLLDTI (peptide, UniProt P01144 1-40, looked up, ends and bridges not checked) [Sauvagine (frog)]					1.7 nM			0.94 nM
DDPPLSIDLTFHLLRTLLELARTQSQRERAEQNRIIFDSV (peptide, UniProt P55090 81-120, looked up) [Urocortin (rat)]			0.29 nM	0.17 nM	0.62 nM			
